Measurements published in patent US20260242478A1 (published 2026).
Where no end group is shown, it is not given here.

Key:
PSMA Fab [1] = target: T1, PSMA Fab (biotinylated (site not stated)); assay: phage ELISA, biotinylated anti-PSMA Fab on neutravidin plate, anti-M13 HRP detection
T1 construct: Biotinylated PSMA Fab captured on neutravidin coated plates in the phage ELISA; also called Anti-PSMA Fab; 006 PSMA Fab

PSMA Fab [2] = target: T1, PSMA Fab; assay: phage ELISA, captured anti-PSMA Fab pre-incubated with PSMA antigen as competitor, anti-M13 HRP detection
Method: (§1) Clonal phage were harvested as crude supernatants and screened via standard ELISAs. […] Prior to the addition of clonal phage. wells were incubated with blocking buffer and PSMA antigen or blocking buffer alone. Without washing or aspirating, clonal phage supernatants were then added to the wells and incubated for a short time. Wells were then washed followed by detection of bound phage using a horse radish conjugated anti-M13 antibody.

PSMA Fab (006 PSMA Fab) [3] = target: T2, PSMA Fab (006 PSMA Fab) (biotinylated (site not stated)); assay: clonal phage ELISA on biotinylated PSMA Fab captured on neutravidin, anti-M13 HRP detection, competitor PSMA antigen
T2 construct: also called Anti-PSMA Fab

PSMA Fab (006 PSMA Fab) [4] = target: T2, PSMA Fab (006 PSMA Fab); assay: clonal phage ELISA on biotinylated PSMA Fab captured on neutravidin, anti-M13 HRP detection, no PSMA antigen
Method: as §1

Anti-PSMA Fab [5] = target: T3, Anti-PSMA Fab (biotinylated (site not stated)); assay: phage ELISA; captured anti-PSMA Fab pre-incubated with PSMA antigen as competitor
T3 construct: The biotinylated PSMA Fab was captured on neutravidin coated plates for the phage ELISA; also called 006 PSMA Fab

Anti-PSMA Fab [6] = target: T3, Anti-PSMA Fab; assay: phage ELISA; biotinylated anti-PSMA Fab on neutravidin plate, anti-M13-HRP detection, no PSMA antigen
Method: as §1

| Binder | Phage binding ELISA signal, Anti-PSMA Fab (PSMA Fab [1]) | Phage binding ELISA signal, Anti-PSMA Fab in presence of PSMA antigen (PSMA Fab [2]) | Phage binding ELISA signal, Anti-PSMA Fab with PSMA antigen (Anti-PSMA Fab [5]) | Phage binding ELISA signal, Anti-PSMA Fab (Anti-PSMA Fab [6]) | other results |
| --- | --- | --- | --- | --- | --- |
| PGPLCVPEWMCIGF (cysteine pairing not given here; also: peptide displayed as fusion to phage pIII, Clonal phage of the peptide-180 optimisation library, tested as crude phage supernatant; not shown: bacteriophage pIII coat protein to which the peptide is fused for display) [Phage-2964] | 2.26 | 0.114 | – | – | – |
| NLPLCKPAWMCKWL (cysteine pairing not given here; also: peptide displayed as fusion to phage pIII, Clonal phage of the peptide-180 optimisation library, tested as crude phage supernatant; not shown: bacteriophage pIII coat protein to which the peptide is fused for display) [Phage-2963] | 2.26 | 0.125 | – | – | – |
| GERYCVPAWMCAGL (cysteine pairing not given here; also: peptide displayed as fusion to phage pIII, Clonal phage of the peptide-180 optimisation library, tested as crude phage supernatant; not shown: bacteriophage pIII coat protein to which the peptide is fused for display) [Phage-2967] | 2.26 | 0.106 | – | – | – |
| TLMRCEPSWMCQGF [Phage-2954] | – | – | – | – | Phage binding ELISA signal, Anti-PSMA Fab with PSMA antigen (PSMA Fab (006 PSMA Fab) [3]): 0.0698; Phage binding ELISA signal, Anti-PSMA Fab (PSMA Fab (006 PSMA Fab) [4]): 2.27 |
| FEMLCKPAWMCSGF (It was tested as crude clonal phage supernatant; also called Peptide-180 library clone) [Phage-2976] | – | – | 0.0857 | 2.24 | – |
| QTPVCIPEWMCTGF (cysteine pairing not given here; also: peptide displayed as fusion to phage pIII, Clonal phage of the peptide-180 optimisation library, tested as crude phage supernatant; not shown: bacteriophage pIII coat protein to which the peptide is fused for display) [Phage-2966] | 2.26 | 0.091 | – | – | – |
| EQPLCTPQWMCWGF [Phage-2958] | – | – | – | – | Phage binding ELISA signal, Anti-PSMA Fab with PSMA antigen (PSMA Fab (006 PSMA Fab) [3]): 0.0972; Phage binding ELISA signal, Anti-PSMA Fab (PSMA Fab (006 PSMA Fab) [4]): 2.27 |
| SEIACRPAWMCQWL (It was tested as crude clonal phage supernatant; also called Peptide-180 library clone) [Phage-2979] | – | – | 0.125 | 2.24 | – |
| WEQRCVPEWMCVGF [Phage-2960] | – | – | – | – | Phage binding ELISA signal, Anti-PSMA Fab with PSMA antigen (PSMA Fab (006 PSMA Fab) [3]): 0.0987; Phage binding ELISA signal, Anti-PSMA Fab (PSMA Fab (006 PSMA Fab) [4]): 2.26 |
| SQPMCIPVWMCRGF (It was tested as crude clonal phage supernatant; also called Peptide-180 library clone) [Phage-2986] | – | – | 0.109 | 2.23 | – |
| VGAACIPDWMCVGF (cysteine pairing not given here; also: peptide displayed as fusion to phage pIII, Clonal phage of the peptide-180 optimisation library, tested as crude phage supernatant; not shown: bacteriophage pIII coat protein to which the peptide is fused for display) [Phage-2974] | 2.25 | 0.0732 | – | – | – |
| VYPLCKPSWMCSGL (cysteine pairing not given here; also: peptide displayed as fusion to phage pIII, Clonal phage of the peptide-180 optimisation library, tested as crude phage supernatant; not shown: bacteriophage pIII coat protein to which the peptide is fused for display) [Phage-2970] | 2.26 | 0.0843 | – | – | – |
| FGYACIPNWMCTVF (It was tested as crude clonal phage supernatant; also called Peptide-180 library clone) [Phage-2978] | – | – | 0.122 | 2.24 | – |
| VSPLCVPSWMCVGF (cysteine pairing not given here; also: peptide displayed as fusion to phage pIII, Clonal phage of the peptide-180 optimisation library, tested as crude phage supernatant; not shown: bacteriophage pIII coat protein to which the peptide is fused for display) [Phage-2973] | 2.25 | 0.108 | – | – | – |
| DIPICRPQWMCIGF (cysteine pairing not given here; also: peptide displayed as fusion to phage pIII, Clonal phage of the peptide-180 optimisation library, tested as crude phage supernatant; not shown: bacteriophage pIII coat protein to which the peptide is fused for display) [Phage-2971] | 2.25 | 0.0617 | – | – | – |
| PEFVCKPSWMCQGF [Phage-2959] | – | – | – | – | Phage binding ELISA signal, Anti-PSMA Fab with PSMA antigen (PSMA Fab (006 PSMA Fab) [3]): 0.0681; Phage binding ELISA signal, Anti-PSMA Fab (PSMA Fab (006 PSMA Fab) [4]): 2.26 |
| FTAYCKPAWMCQGL (It was tested as crude clonal phage supernatant; also called Peptide-180 library clone) [Phage-2988] | – | – | 0.0917 | 2.22 | – |
| AGIRCVPEWMCLGF (It was tested as crude clonal phage supernatant; also called Peptide-180 library clone) [Phage-2984] | – | – | 0.0784 | 2.23 | – |
